The values below come from US20230235012A1 (ALPINE IMMUNE SCIENCES, published 2023).

The target of assay [1] is T1, human CD28, full-length, expressed on transfected Expi293 cells (human, UniProt P10747 19-220).
T1 construct: whole, on cells
As to the kind of experiment: flow cytometry, 100 nM, Expi293 cells with human CD28.

For assay [2], the target named is T2, human ICOS, full-length, expressed on transfected Expi293 cells (human, UniProt Q9Y6W8 21-199).
T2 construct: whole, on cells
T2 sequence (looked up): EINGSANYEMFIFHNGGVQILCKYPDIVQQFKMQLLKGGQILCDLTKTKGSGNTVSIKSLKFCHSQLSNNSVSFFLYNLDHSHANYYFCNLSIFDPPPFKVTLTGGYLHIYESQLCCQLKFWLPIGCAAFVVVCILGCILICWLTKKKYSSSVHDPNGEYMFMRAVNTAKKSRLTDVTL
As to the kind of experiment: flow cytometry, 100 nM, Expi293 cells with human ICOS. A general note: In flow cytometry, cells or beads pass a laser one at a time.

Assay [3] has as its target T3, human CTLA-4, full-length, expressed on transfected Expi293 cells (human, UniProt P16410 36-223).
T3 construct: whole, on cells
As to the kind of experiment: flow cytometry, 100 nM, Expi293 cells with human CTLA-4.

T3 sequence (P16410 36-223): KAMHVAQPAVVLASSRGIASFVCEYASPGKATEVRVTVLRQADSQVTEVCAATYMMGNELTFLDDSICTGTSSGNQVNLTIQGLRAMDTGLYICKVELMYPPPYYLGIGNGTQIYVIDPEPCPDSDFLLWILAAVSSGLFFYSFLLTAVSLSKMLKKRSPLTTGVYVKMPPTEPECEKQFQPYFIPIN

B1: variant ICOSL IgV-Fc fusion N52M/N57H/Q100S (Fc fusion)
chain: DTQEKEVRAMVGSDVELSCACPEGSRFDLNDVYVYWQTSESKTVVTYHIPQMSSLEHVDSRYRNRALMSPAGMLRGDFSLRLFNVTPQDEQKFHCLVLSSSLGFQEVLSVEVTLHVAANFSVGSGGGGSEPKSSDKTHTCPPCPAPEAEGAPSVFLFPPKPKDTLMISRTPEVTCVVVDVSHEDPEVKFNWYVDGVEVHNAKTKPREEQYNSTYRVVSVLTVLHQDWLNGKEYKCKVSNKALPAPIEKTISKAKGQPREPQVYTLPPSREEMTKNQVSLTCLVKGFYPSDIAVEWESNGQPENNYKTTPPVLDSDGSFFLYSKLTVDKSRWQQGNVFSCSVMHEALHNHYTQKSLSLSPG
Consider B1, for which the values for the MFI in assay [1], in assay [2] and in assay [3] were 115000 MFI, 266000 MFI and 463000 MFI, respectively. Further, the “MFI ratio to WT (ΔWT)” value in assay [1] is 5.1 fold; in assay [2], 1.25 fold; in assay [3] it was 1.4 fold.

B2: variant ICOSL IgV-Fc fusion N52Q/N57S/Q100A (Fc fusion)
chain: DTQEKEVRAMVGSDVELSCACPEGSRFDLNDVYVYWQTSESKTVVTYHIPQQSSLESVDSRYRNRALMSPAGMLRGDFSLRLFNVTPQDEQKFHCLVLSASLGFQEVLSVEVTLHVAANFSVGSGGGGSEPKSSDKTHTCPPCPAPEAEGAPSVFLFPPKPKDTLMISRTPEVTCVVVDVSHEDPEVKFNWYVDGVEVHNAKTKPREEQYNSTYRVVSVLTVLHQDWLNGKEYKCKVSNKALPAPIEKTISKAKGQPREPQVYTLPPSREEMTKNQVSLTCLVKGFYPSDIAVEWESNGQPENNYKTTPPVLDSDGSFFLYSKLTVDKSRWQQGNVFSCSVMHEALHNHYTQKSLSLSPG
As to B2, the results for the MFI in assay [1], in assay [2] and in assay [3] were 91300 MFI, 263000 MFI and 315000 MFI, respectively. For the same molecule, the results for the “MFI ratio to WT (ΔWT)” value in assay [1], in assay [2] and in assay [3] were 4.1 fold, 1.24 fold and 0.95 fold, respectively.

B3: variant ICOSL IgV-Fc fusion N52R/N57L/Q100A (Fc fusion)
chain: DTQEKEVRAMVGSDVELSCACPEGSRFDLNDVYVYWQTSESKTVVTYHIPQRSSLELVDSRYRNRALMSPAGMLRGDFSLRLFNVTPQDEQKFHCLVLSASLGFQEVLSVEVTLHVAANFSVGSGGGGSEPKSSDKTHTCPPCPAPEAEGAPSVFLFPPKPKDTLMISRTPEVTCVVVDVSHEDPEVKFNWYVDGVEVHNAKTKPREEQYNSTYRVVSVLTVLHQDWLNGKEYKCKVSNKALPAPIEKTISKAKGQPREPQVYTLPPSREEMTKNQVSLTCLVKGFYPSDIAVEWESNGQPENNYKTTPPVLDSDGSFFLYSKLTVDKSRWQQGNVFSCSVMHEALHNHYTQKSLSLSPG
Take B3: the MFI in assay [1] came to 119000 MFI; in assay [2], 308000 MFI; in assay [3], 403000 MFI. Further, the “MFI ratio to WT (ΔWT)” value in assay [1] turned out to be 5.3 fold; in assay [2], 1.45 fold; in assay [3] it was 1.22 fold.

B4: variant ICOSL IgV-Fc fusion N52R/N57Y/Q100R (Fc fusion)
chain: DTQEKEVRAMVGSDVELSCACPEGSRFDLNDVYVYWQTSESKTVVTYHIPQRSSLEYVDSRYRNRALMSPAGMLRGDFSLRLFNVTPQDEQKFHCLVLSRSLGFQEVLSVEVTLHVAANFSVGSGGGGSEPKSSDKTHTCPPCPAPEAEGAPSVFLFPPKPKDTLMISRTPEVTCVVVDVSHEDPEVKFNWYVDGVEVHNAKTKPREEQYNSTYRVVSVLTVLHQDWLNGKEYKCKVSNKALPAPIEKTISKAKGQPREPQVYTLPPSREEMTKNQVSLTCLVKGFYPSDIAVEWESNGQPENNYKTTPPVLDSDGSFFLYSKLTVDKSRWQQGNVFSCSVMHEALHNHYTQKSLSLSPG
Consider B4, for which the MFI in assay [1] is 3280 MFI; in assay [2], 6100 MFI; in assay [3], 4270 MFI. For the same molecule, the figures for the “MFI ratio to WT (ΔWT)” value in assay [1], in assay [2] and in assay [3] were 0.1 fold, 0.03 fold and 0.01 fold, respectively.

B5: variant ICOSL IgV-Fc fusion N52P/N57S/Q100G (Fc fusion)
chain: DTQEKEVRAMVGSDVELSCACPEGSRFDLNDVYVYWQTSESKTVVTYHIPQPSSLESVDSRYRNRALMSPAGMLRGDFSLRLFNVTPQDEQKFHCLVLSGSLGFQEVLSVEVTLHVAANFSVGSGGGGSEPKSSDKTHTCPPCPAPEAEGAPSVFLFPPKPKDTLMISRTPEVTCVVVDVSHEDPEVKFNWYVDGVEVHNAKTKPREEQYNSTYRVVSVLTVLHQDWLNGKEYKCKVSNKALPAPIEKTISKAKGQPREPQVYTLPPSREEMTKNQVSLTCLVKGFYPSDIAVEWESNGQPENNYKTTPPVLDSDGSFFLYSKLTVDKSRWQQGNVFSCSVMHEALHNHYTQKSLSLSPG
As to B5, the MFI in assay [1] was determined as 6800 MFI; in assay [2] it was 143000 MFI; in assay [3] it was 5050 MFI. The “MFI ratio to WT (ΔWT)” value in assay [1] worked out at 0.3 fold; in assay [2] it was 0.68 fold; in assay [3] it was 0.02 fold.

B6: variant ICOSL IgV-Fc fusion N52R/N57F/Q100T (Fc fusion)
chain: DTQEKEVRAMVGSDVELSCACPEGSRFDLNDVYVYWQTSESKTVVTYHIPQRSSLEFVDSRYRNRALMSPAGMLRGDFSLRLFNVTPQDEQKFHCLVLSTSLGFQEVLSVEVTLHVAANFSVGSGGGGSEPKSSDKTHTCPPCPAPEAEGAPSVFLFPPKPKDTLMISRTPEVTCVVVDVSHEDPEVKFNWYVDGVEVHNAKTKPREEQYNSTYRVVSVLTVLHQDWLNGKEYKCKVSNKALPAPIEKTISKAKGQPREPQVYTLPPSREEMTKNQVSLTCLVKGFYPSDIAVEWESNGQPENNYKTTPPVLDSDGSFFLYSKLTVDKSRWQQGNVFSCSVMHEALHNHYTQKSLSLSPG
For the molecule B6, the MFI came to 127000 MFI in assay [1], 270000 MFI in assay [2] and 358000 MFI in assay [3]. Also, the “MFI ratio to WT (ΔWT)” value came to 5.7 fold in assay [1], 1.27 fold in assay [2] and 1.08 fold in assay [3].

B7: variant ICOSL IgV-Fc fusion N52R/N57L/Q100S (Fc fusion)
chain: DTQEKEVRAMVGSDVELSCACPEGSRFDLNDVYVYWQTSESKTVVTYHIPQRSSLELVDSRYRNRALMSPAGMLRGDFSLRLFNVTPQDEQKFHCLVLSSSLGFQEVLSVEVTLHVAANFSVGSGGGGSEPKSSDKTHTCPPCPAPEAEGAPSVFLFPPKPKDTLMISRTPEVTCVVVDVSHEDPEVKFNWYVDGVEVHNAKTKPREEQYNSTYRVVSVLTVLHQDWLNGKEYKCKVSNKALPAPIEKTISKAKGQPREPQVYTLPPSREEMTKNQVSLTCLVKGFYPSDIAVEWESNGQPENNYKTTPPVLDSDGSFFLYSKLTVDKSRWQQGNVFSCSVMHEALHNHYTQKSLSLSPG
With B7, the MFI worked out at 112000 MFI in assay [1], 231000 MFI in assay [2] and 289000 MFI in assay [3]. The “MFI ratio to WT (ΔWT)” value turned out to be 5 fold in assay [1], 1.09 fold in assay [2] and 0.88 fold in assay [3].

B8: variant ICOSL IgV-Fc fusion N52Q/N57F (Fc fusion)
chain: DTQEKEVRAMVGSDVELSCACPEGSRFDLNDVYVYWQTSESKTVVTYHIPQQSSLEFVDSRYRNRALMSPAGMLRGDFSLRLFNVTPQDEQKFHCLVLSQSLGFQEVLSVEVTLHVAANFSVGSGGGGSEPKSSDKTHTCPPCPAPEAEGAPSVFLFPPKPKDTLMISRTPEVTCVVVDVSHEDPEVKFNWYVDGVEVHNAKTKPREEQYNSTYRVVSVLTVLHQDWLNGKEYKCKVSNKALPAPIEKTISKAKGQPREPQVYTLPPSREEMTKNQVSLTCLVKGFYPSDIAVEWESNGQPENNYKTTPPVLDSDGSFFLYSKLTVDKSRWQQGNVFSCSVMHEALHNHYTQKSLSLSPG
As to B8, the MFI is 131000 MFI in assay [1], 192000 MFI in assay [2] and 367000 MFI in assay [3]. The “MFI ratio to WT (ΔWT)” value in assay [1] is 5.9 fold; in assay [2], 0.91 fold; in assay [3], 1.11 fold.

B9: variant ICOSL IgV-Fc fusion N52R/N57Y/Q100S (Fc fusion)
chain: DTQEKEVRAMVGSDVELSCACPEGSRFDLNDVYVYWQTSESKTVVTYHIPQRSSLEYVDSRYRNRALMSPAGMLRGDFSLRLFNVTPQDEQKFHCLVLSSSLGFQEVLSVEVTLHVAANFSVGSGGGGSEPKSSDKTHTCPPCPAPEAEGAPSVFLFPPKPKDTLMISRTPEVTCVVVDVSHEDPEVKFNWYVDGVEVHNAKTKPREEQYNSTYRVVSVLTVLHQDWLNGKEYKCKVSNKALPAPIEKTISKAKGQPREPQVYTLPPSREEMTKNQVSLTCLVKGFYPSDIAVEWESNGQPENNYKTTPPVLDSDGSFFLYSKLTVDKSRWQQGNVFSCSVMHEALHNHYTQKSLSLSPG
For the molecule B9, the MFI in assay [1] came to 133000 MFI; in assay [2] it was 229000 MFI; in assay [3], 504000 MFI. For the same molecule, the figures for the “MFI ratio to WT (ΔWT)” value in assay [1], in assay [2] and in assay [3] were 6 fold, 1.08 fold and 1.53 fold, respectively.

B10: variant ICOSL IgV-Fc fusion N52M/N57W/Q100P (Fc fusion)
chain: DTQEKEVRAMVGSDVELSCACPEGSRFDLNDVYVYWQTSESKTVVTYHIPQMSSLEWVDSRYRNRALMSPAGMLRGDFSLRLFNVTPQDEQKFHCLVLSPSLGFQEVLSVEVTLHVAANFSVGSGGGGSEPKSSDKTHTCPPCPAPEAEGAPSVFLFPPKPKDTLMISRTPEVTCVVVDVSHEDPEVKFNWYVDGVEVHNAKTKPREEQYNSTYRVVSVLTVLHQDWLNGKEYKCKVSNKALPAPIEKTISKAKGQPREPQVYTLPPSREEMTKNQVSLTCLVKGFYPSDIAVEWESNGQPENNYKTTPPVLDSDGSFFLYSKLTVDKSRWQQGNVFSCSVMHEALHNHYTQKSLSLSPG
B10: the MFI in assay [1] was found to be 168000 MFI; in assay [2], 322000 MFI; in assay [3], 343000 MFI. For the same molecule, the “MFI ratio to WT (ΔWT)” value in assay [1] is 7.5 fold; in assay [2], 1.52 fold; in assay [3], 1.04 fold.

B11: variant ICOSL IgV-Fc fusion N52R/N57W/Q100K (Fc fusion)
chain: DTQEKEVRAMVGSDVELSCACPEGSRFDLNDVYVYWQTSESKTVVTYHIPQRSSLEWVDSRYRNRALMSPAGMLRGDFSLRLFNVTPQDEQKFHCLVLSKSLGFQEVLSVEVTLHVAANFSVGSGGGGSEPKSSDKTHTCPPCPAPEAEGAPSVFLFPPKPKDTLMISRTPEVTCVVVDVSHEDPEVKFNWYVDGVEVHNAKTKPREEQYNSTYRVVSVLTVLHQDWLNGKEYKCKVSNKALPAPIEKTISKAKGQPREPQVYTLPPSREEMTKNQVSLTCLVKGFYPSDIAVEWESNGQPENNYKTTPPVLDSDGSFFLYSKLTVDKSRWQQGNVFSCSVMHEALHNHYTQKSLSLSPG
Consider B11, for which the MFI turned out to be 131000 MFI in assay [1], 349000 MFI in assay [2] and 477000 MFI in assay [3]. In addition, the “MFI ratio to WT (ΔWT)” value in assay [1] amounted to 5.9 fold; in assay [2], 1.65 fold; in assay [3], 1.44 fold.
